Article PMC12412668

Experiments:
[1] = target: T1, CD96 on primary human CD4^+ T cells and PBMCs (human (endogenous in primary CD4^+ T cells and PBMCs)) (UniProt P40200)
T1 sequence: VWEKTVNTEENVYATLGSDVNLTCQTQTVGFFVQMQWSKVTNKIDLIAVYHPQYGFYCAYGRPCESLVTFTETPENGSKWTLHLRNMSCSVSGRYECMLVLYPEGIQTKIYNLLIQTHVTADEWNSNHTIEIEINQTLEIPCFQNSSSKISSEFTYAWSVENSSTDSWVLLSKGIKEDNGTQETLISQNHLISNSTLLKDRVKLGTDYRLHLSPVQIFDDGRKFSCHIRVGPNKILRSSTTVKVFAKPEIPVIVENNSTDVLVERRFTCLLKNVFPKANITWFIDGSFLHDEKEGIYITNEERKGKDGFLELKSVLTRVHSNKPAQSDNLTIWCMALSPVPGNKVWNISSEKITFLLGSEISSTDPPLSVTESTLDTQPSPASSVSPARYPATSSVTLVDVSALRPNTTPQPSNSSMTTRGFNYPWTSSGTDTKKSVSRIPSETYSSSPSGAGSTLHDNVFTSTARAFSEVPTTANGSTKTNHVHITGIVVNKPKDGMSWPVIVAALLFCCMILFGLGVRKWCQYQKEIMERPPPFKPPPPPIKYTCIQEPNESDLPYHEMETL

[2] = target: T1, CD96 on primary human CD4^+ T cells and PBMCs (human (endogenous in primary CD4^+ T cells and PBMCs)); remark: listed apart in the source

Binder	adherence of primary CD4^+ T cells (mock-infected or infected with WT HIV-1) to wells coated with CD155-Fc, percent adherent cells by flow cytometry [1] [%]	IFN-γ release (ELISpot) of PBMCs stimulated with HCMV pp65 peptide and costimulated with soluble CD155 (5 μg/ml), fold change relative to pp65 alone [2] [fold]
Recombinant human CD155-Fc chimera (carrier-free) (Fc fusion) WPPPGTGDVVVQAPTQVPGFLGDSVTLPCYLQVPNMEVTHVSQLTWARHGESGSMAVFHQTQGPSYSESKRLEFVAARLGAELRNASLRMFGLRVEDEGNYTCLFVTFPQGSRSVDIWLRVLAKPQNTAEVQKVQLTGEPVPMARCVSTGGRPPAQITWHSDLGGMPNTSQVPGFLSGTVTVTSLWILVPSSQVDGKNVTCKVEHESFEKPQLLTVNLTVYYPPEVSISGYDNNWYLGQNEATLTCDARSNPEPTGYNWSTTMGPLPPFAVAQGAQLLIRPVDKPINTTLICNVTNALGARQAELTVQVKEGPPSEHSGISRN	20	
Human CD155 (PVR) Fc chimera recombinant protein (Fc fusion) WPPPGTGDVVVQAPTQVPGFLGDSVTLPCYLQVPNMEVTHVSQLTWARHGESGSMAVFHQTQGPSYSESKRLEFVAARLGAELRNASLRMFGLRVEDEGNYTCLFVTFPQGSRSVDIWLRVLAKPQNTAEVQKVQLTGEPVPMARCVSTGGRPPAQITWHSDLGGMPNTSQVPGFLSGTVTVTSLWILVPSSQVDGKNVTCKVEHESFEKPQLLTVNLTVYYPPEVSISGYDNNWYLGQNEATLTCDARSNPEPTGYNWSTTMGPLPPFAVAQGAQLLIRPVDKPINTTLICNVTNALGARQAELTVQVKEGPPSEHSGISRN		< 8
